Consider 5 substances from patent publication US6353097.

The first series has as its target C-terminal (201-243) cytoplasmic domain of the rat FcεRIβ, Gal 4 DNA binding domain fusion protein (pAS2-1-βC) (rat). Description: yeast two-hybrid, liquid β-galactosidase assay, strain Y187.
With “full length Lyn A, Gal 4-activation domain-kinase fusion protein (from UniProt P04386 768-881) (enzyme)”, the LacZ reporter (β-galactosidase) activity, fold over the negative control pACT-27-66-OOF came out at 3 fold; the strength of the interaction by β-galactosidase activity, relative to p53 and SV40 stood at 1 per cent. For “full length Lyn B, Gal 4-activation domain-kinase fusion protein (from UniProt P04386 768-881) (enzyme)”, in that order: 3 fold and 1 per cent. Substance “unique domain of Lyn B (amino acids 1-45), Gal 4-activation domain fusion protein (from UniProt Q07014 1-66)” came in with a LacZ reporter (β-galactosidase) activity, fold over the negative control pACT-27-66-OOF of 3 fold; a strength of the interaction by β-galactosidase activity, relative to p53 and SV40 of 1 per cent. In turn, “unique domain of Lyn A (amino acids 1-66), Gal 4-activation domain fusion protein (from UniProt Q07014 1-66)” had a LacZ reporter (β-galactosidase) activity, fold over the negative control pACT-27-66-OOF of 3 fold; a strength of the interaction by β-galactosidase activity, relative to p53 and SV40 of 1 per cent.

The next series concerns the target rat FcεRI (α, β and γ subunits) on CHO-B12 cells (UniProt P12371).
Assay: not given
With “full length, catalytically inactive Lyn B kinase (Lys279 to Arg), rat, expressed in CHO-B12 cells”, the “antigen-induced phosphorylation of receptor tyrosines” value is recorded as 20-75% less antigen-induced phosphorylation of receptor tyrosines than cells transfected with the vector alone.
